Data as given in patent US20230058774A1.

Tests used:
[1] = target: FasDNR (Fas dominant negative receptor, deletion of amino acids 230-314 of human Fas) (human) (UniProt P25445); experiment: cell-based or functional assay
[2] = target: human Fas, wild type (human) (UniProt P25445); experiment: cell-based or functional assay

apoptosis (active Caspase3/7 and Annexin V) of primary human CD8+ T cells exposed to 100 ng/ml FasL-LZ [1]: < 20%
apoptosis (active Caspase3/7 and Annexin V) of primary human CD8+ T cells exposed to 100 ng/ml FasL-LZ [2]: 70%
Substance: soluble FasL oligomerized through a leucine zipper motif (FasL-LZ) (from UniProt P48023 103-281) (ligand)
